From patent US20180051085A1 (published 2018)

How the values were obtained:
[1] = molecular target: T1, recombinant human PD-1-His (human, UniProt Q15116 25-167, limits assumed); experiment: binding to recombinant human PD-1-His (FIG. 8)
T1 construct: also called recombinant PD-1-His; not shown: His tag

[2] = molecular target: T2, human PD-1 expressed on cells (human, UniProt Q15116 25-288); experiment: binding to 2D1 cells transfected with human PD-1 (FIG. 9)
T2 construct: whole, on cells; also called SpESFX-2D1
T2 sequence (Q15116 25-288): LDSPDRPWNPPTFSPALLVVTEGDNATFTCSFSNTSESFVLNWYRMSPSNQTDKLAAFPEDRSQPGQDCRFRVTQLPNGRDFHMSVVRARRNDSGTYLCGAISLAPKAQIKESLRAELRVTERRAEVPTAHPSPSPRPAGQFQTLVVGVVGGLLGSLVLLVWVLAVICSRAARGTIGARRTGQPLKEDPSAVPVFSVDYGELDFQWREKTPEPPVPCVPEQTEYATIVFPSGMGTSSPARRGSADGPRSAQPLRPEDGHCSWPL

T1 sequence (Q15116 25-167 limits assumed): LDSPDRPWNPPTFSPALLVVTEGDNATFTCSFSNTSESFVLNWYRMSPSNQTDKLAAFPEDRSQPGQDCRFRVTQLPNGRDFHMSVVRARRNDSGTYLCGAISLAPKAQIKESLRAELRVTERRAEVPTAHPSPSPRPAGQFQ

| Binder | EC50 [1] [nM] | EC50 [2] [nM] |
| --- | --- | --- |
| chimeric anti-PD-1 antibody 2G9 (IMMU-cPD-1) (antibody, V domains shown) VH: VKLQESGGGLVKPGGSLKLSCAASGFAFSSNDMSWVRQTPEKRLEWVATISGGGINTYYPDSVKGRFTISRDNARNTLDLQMSSLRSEDTALYYCARRSNYAWFAYWGQGTPVTVSA VL: not shown | 0.043 | 1.1 |
| humanized anti-PD-1 antibody hPD-1-v5 (antibody, V domains shown, also called version 5 (V5) antibody) VH: QVQLVESGGGLVKPGGSLRLSCAASGFAFSSNDMSWVRQAPGKGLEWVATISGGGINTYYPDSVKGRFTISRDNAKNTLYLQMNSLRAEDTAVYYCARRSNYAWFAYWGQGTPVTVSA VL: DIQLTQSPASLAVSLGQRATISCRASESVDTYGISFMNWFQQKPGQPPKLLISPNQGSGVPARFSGSGSGTDFTLTINSLEAEDTAVYFCQQSKEVPWTFGGGTKLEIK | 0.148 | 3.8 |
